In series [1] the test system is HeLa Kyoto. The experiment in a line: solubility in G1/S (NP-40 vs SDS abundance) (log2 ratio); higher = more soluble. Particulars: cell cycle stage: G1/S.
The subject of series [2] is HeLa Kyoto. The experiment in a line: thermal stability score vs G1/S (z-score of summed log2 fold changes over temperatures); higher = more thermally stable than in G1/S.
For series [3], the system named is HeLa Kyoto. The experiment in a line: solubility change mitosis vs G1/S (difference of NP-40 vs SDS log2 ratios) (log2 ratio difference); higher = more soluble in mitosis.
Series [4] relates to HeLa Kyoto. The experiment in a line: melting temperature (median over replicates), in situ; higher = more thermally stable.
The mark [5] stands for this setting: cell cycle stage: early G1 (4.5 h after nocodazole release).
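Wherever melting temperature (median over replicates), in situ is given: HeLa Kyoto cells synchronized by double thymidine or nocodazole block, proteins quantified by TMT10plex mass spectrometry, three independent biological replicates.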
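Wherever solubility change mitosis vs G1/S (difference of NP-40 vs SDS log2 ratios) is given: synchronized HeLa Kyoto cells (double thymidine block for G1/S, nocodazole release for mitosis), protein amounts in NP-40 versus SDS lysates quantified by mass spectrometry, three biological replicates.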
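Wherever solubility in G1/S (NP-40 vs SDS abundance) is given: HeLa Kyoto cells arrested at G1/S by double thymidine block, proteins quantified by TMT10plex mass spectrometry in mild NP-40 versus SDS extracts, three biological replicates.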
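Wherever thermal stability score vs G1/S (z-score of summed log2 fold changes over temperatures) is given: synchronized HeLa Kyoto cells, proteins quantified by TMT10plex mass spectrometry, three biological replicates, mitosis taken 0.5 h after nocodazole release, G1/S directly after double thymidine block.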

Consider “MVEEENIRVVRCGGSELNFRRAVFSADSKYIFCVSGDFVKVYSTVTEECVHILHGHRNLVTGIQLNPNNHLQLYSCSLDGTIKLWDYIDGILIKTFIVGCKLHALFTLAQAEDSVFVIVNKEKPDIFQLVSVKLPKSSSQEVEAKELSFVLDYINQSPKCIAFGNEGVYVAAVREFYLSVYFFKKKTTSRFTLSSSRNKKHAKNNFTCVACHPTEDCIASGHMDGKIRLWRNFYDDKKYTYTCLHWHHDMVMDLAFSVTGTSLLSGGRESVLVEWRDATEKNKEFLPRLGATIEHISVSPAGDLFCTSHSDNKIIIIHRNLEASAVIQGLVKDRSIFTGLMIDPRTKALVLNGKPGHLQFYSLQSDKQLYNLDIIQQEYINDYGLIQIELTKAAFGCFGNWLATVEQRQEKETELELQMKLWMYNKKTQGFILNTKINMPHEDCITALCFCNAEKSEQPTLVTASKDGYFKVWILTDDSDIYKKAVGWTCDFVGSYHKYQATNCCFSEDGSLLAVSFEEIVTIWDSVTWELKCTFCQRAGKIRHLCFGRLTCSKYLLGATENGILCCWNLLSCALEWNAKLNVRVMEPDPNSENIAAISQSSVGSDLFVFKPSEPRPLYIQKGISREKVQWGVFVPRDVPESFTSEAYQWLNRSQFYFLTKSQSLLTFSTKSPEEKLTPTSKQLLAEESLPTTPFYFILGKHRQQQDEKLNETLENELVQLPLTENIPAISELLHTPAHVLPSAAFLCSMFVNSLLLSKETKSAKEIPEDVDMEEEKESEDSDEENDFTEKVQDTSNTGLGEDIIHQLSKSEEKELRKFRKIDYSWIAAL [WDR75]”, for which, in the series on HeLa Kyoto [1], the “solubility in G1/S (log2)” value was -1.21. Also, the thermal stability score was found to be 1.76 in the series with HeLa Kyoto [2] (setting [5]) and 0.92 in the series on HeLa Kyoto [2] (cell cycle stage: mitosis). In the series on HeLa Kyoto [3], the “solubility change mitosis (log2)” value came to 0.372. The melting temperature with HeLa Kyoto [4] (cell cycle stage: G1/S) is 50 °C; in the series with HeLa Kyoto [4] (cell cycle stage: mitosis), 50.1 °C.

Consider “MVHFCGLLTLHREPVPLKSISVSVNIYEFVAGVSATLNYENEEKVPLEAFFVFPMDEDSAVYSFEALVDGKKIVAELQDKMKARTNYEKAISQGHQAFLLEGDSSSRDVFSCNVGNLQPGSKAAVTLKYVQELPLEADGALRFVLPAVLNPRYQFSGSSKDSCLNVKTPIVPVEDLPYTLSMVATIDSQHGIEKVQSNCPLSPTEYLGEDKTSAQVSLAAGHKFDRDVELLIYYNEVHTPSVVLEMGMPNMKPGHLMGDPSAMVSFYPNIPEDQPSNTCGEFIFLMDRSGSMQSPMSSQDTSQLRIQAAKETLILLLKSLPIGCYFNIYGFGSSYEACFPESVKYTQQTMEEALGRVKLMQADLGGTEILAPLQNIYRGPSIPGHPLQLFVFTDGEVTDTFSVIKEVRINRQKHRCFSFGIGEGTSTSLIKGIARASGGTSEFITGKDRMQSKALRTLKRSLQPVVEDVSLSWHLPPGLSAKMLSPEQTVIFRGQRLISYAQLTGRMPAAETTGEVCLKYTLQGKTFEDKVTFPLQPKPDVNLTIHRLAAKSLLQTKDMGLRETPASDKKDALNLSLESGVISSFTAFIAINKELNKPVQGPLAHRDVPRPILLGASAPLKIKCQSGFRKALHSDRPPSASQPRGELMCYKAKTFQMDDYSLCGLISHKDQHSPGFGENHLVQLIYHQNANGSWDLNEDLAKILGMSLEEIMAAQPAELVDSSGWATILAVIWLHSNGKDLKCEWELLERKAVAWMRAHAGSTMPSVVKAAITFLKSSVDPAIFAF [VWA5A]”, for which the “solubility in G1/S (log2)” value in the series with HeLa Kyoto [1] came to 0.137. The thermal stability score in the series with HeLa Kyoto [2] (setting [5]) is -0.428; with HeLa Kyoto [2] (cell cycle stage: mitosis), -0.133. Also, the “solubility change mitosis (log2)” value with HeLa Kyoto [3] was -0.132. Moreover, the melting temperature stood at 52.3 °C in the series with HeLa Kyoto [4] (cell cycle stage: G1/S) and 52.2 °C in the series with HeLa Kyoto [4] (cell cycle stage: mitosis).

For “MVKLDIHTLAHHLKQERLYVNSEKQLIQRLNADVLKTAEKLYRTAWIAKQQRINLDRLIITSAEASPAECCQHAKILEDTQFVDGYKQLGFQETAYGEFLSRLRENPRLIASSLVAGEKLNQENTQSVIYTVFTSLYGNCIMQEDESYLLQVLRYLIEFELKESDNPRRLLRRGTCAFSILFKLFSEGLFSAKLFLTATLHEPIMQLLVEDEDHLETDPNKLIERFSPSQQEKLFGEKGSDRFRQKVQEMVESNEAKLVALVNKFIGYLKQNTYCFPHSLRWIVSQMYKTLSCVDRLEVGEVRAMCTDLLLACFICPAVVNPEQYGIISDAPINEVARFNLMQVGRLLQQLAMTGSEEGDPRTKSSLGKFDKSCVAAFLDVVIGGRAVETPPLSSVNLLEGLSRTVVYITYSQLITLVNFMKSVMSGDQLREDRMALDNLLANLPPAKPGKSSSLEMTPYNTPQLSPATTPANKKNRLPIATRSRSRTNMLMDLHMDHEGSSQETIQEVQPEEVLVISLGTGPQLTPGMMSENEVLNMQLSDGGQGDVPVDENKLHGKPDKTLRFSLCSDNLEGISEGPSNRSNSVSSLDLEGESVSELGAGPSGSNGVEALQLLEHEQATTQDNLDDKLRKFEIRDMMGLTDDRDISETVSETWSTDVLGSDFDPNIDEDRLQEIAGAAAENMLGSLLCLPGSGSVLLDPCTGSTISETTSEAWSVEVLPSDSEAPDLKQEERLQELESCSGLGSTSDDTDVREVSSRPSTPGLSVVSGISATSEDIPNKIEDLRSECSSDFGGKDSVTSPDMDEITHGAHQLTSPPSQSESLLAMFDPLSSHEGASAVVRPKVHYARPSHPPPDPPILEGAVGGNEARLPNFGSHVLTPAEMEAFKQRHSYPERLVRSRSSDIVSSVRRPMSDPSWNRRPGNEERELPPAAAIGATSLVAAPHSSSSSPSKDSSRGETEERKDSDDEKSDRNRPWWRKRFVSAMPKAPIPFRKKEKQEKDKDDLGPDRFSTLTDDPSPRLSAQAQVAEDILDKYRNAIKRTSPSDGAMANYESTGDNHDRDLSSKLLYHSDKEVMGDGESAHDSPRDEALQNISADDLPDSASQAAHPQDSAFSYRDAKKKLRLALCSADSVAFPVLTHSTRNGLPDHTDPEDNEIVCFLKVQIAEAINLQDKNLMAQLQETMRCVCRFDNRTCRKLLASIAEDYRKRAPYIAYLTRCRQGLQTTQAHLERLLQRVLRDKEVANRYFTTVCVRLLLESKEKKIREFIQDFQKLTAADDKTAQVEDFLQFLYGAMAQDVIWQNASEEQLQDAQLAIERSVMNRIFKLAFYPNQDGDILRDQVLHEHIQRLSKVVTANHRALQIPEVYLREAPWPSAQSEIRTISAYKTPRDKVQCILRMCSTIMNLLSLANEDSVPGADDFVPVLVFVLIKANPPCLLSTVQYISSFYASCLSGEESYWWMQFTAAVEFIKTIDDRK [GAPVD1]”, the “solubility in G1/S (log2)” value with HeLa Kyoto [1] was -0.136. Moreover, the thermal stability score is 1.88 in the series with HeLa Kyoto [2] (setting [5]) and 3.33 in the series on HeLa Kyoto [2] (cell cycle stage: mitosis). The “solubility change mitosis (log2)” value with HeLa Kyoto [3] was -0.131. Besides, the figures for the melting temperature in the series on HeLa Kyoto [4] (cell cycle stage: G1/S) and with HeLa Kyoto [4] (cell cycle stage: mitosis) were 49.5 °C and 49.8 °C, respectively.

“MVLADLGRKITSALRSLSNATIINEEVLNAMLKEVCTALLEADVNIKLVKQLRENVKSAIDLEEMASGLNKRKMIQHAVFKELVKLVDPGVKAWTPTKGKQNVIMFVGLQGSGKTTTCSKLAYYYQRKGWKTCLICADTFRAGAFDQLKQNATKARIPFYGSYTEMDPVIIASEGVEKFKNENFEIIIVDTSGRHKQEDSLFEEMLQVANAIQPDNIVYVMDASIGQACEAQAKAFKDKVDVASVIVTKLDGHAKGGGALSAVAATKSPIIFIGTGEHIDDFEPFKTQPFISKLLGMGDIEGLIDKVNELKLDDNEALIEKLKHGQFTLRDMYEQFQNIMKMGPFSQILGMIPGFGTDFMSKGNEQESMARLKKLMTIMDSMNDQELDSTDGAKVFSKQPGRIQRVARGSGVSTRDVQELLTQYTKFAQMVKKMGGIKGLFKGGDMSKNVSQSQMAKLNQQMAKMMDPRVLHHMGGMAGLQSMMRQFQQGAAGNMKGMMGFNNM [SRP54]”: the “solubility in G1/S (log2)” value in the series with HeLa Kyoto [1] is 0.193. The thermal stability score in the series with HeLa Kyoto [2] (setting [5]) is 0.232; in the series with HeLa Kyoto [2] (cell cycle stage: mitosis) it was 0.227. Besides, the “solubility change mitosis (log2)” value with HeLa Kyoto [3] came to 0.157. In addition, the melting temperature in the series with HeLa Kyoto [4] (cell cycle stage: G1/S) was found to be 52 °C; with HeLa Kyoto [4] (cell cycle stage: mitosis) it was 50.4 °C.

“MVLGPEQKMSDDSVSGDHGESASLGNINPAYSNPSLSQSPGDSEEYFATYFNEKISIPEEEYSCFSFRKLWAFTGPGFLMSIAYLDPGNIESDLQSGAVAGFKLLWILLLATLVGLLLQRLAARLGVVTGLHLAEVCHRQYPKVPRVILWLMVELAIIGSDMQEVIGSAIAINLLSVGRIPLWGGVLITIADTFVFLFLDKYGLRKLEAFFGFLITIMALTFGYEYVTVKPSQSQVLKGMFVPSCSGCRTPQIEQAVGIVGAVIMPHNMYLHSALVKSRQVNRNNKQEVREANKYFFIESCIALFVSFIINVFVVSVFAEAFFGKTNEQVVEVCTNTSSPHAGLFPKDNSTLAVDIYKGGVVLGCYFGPAALYIWAVGILAAGQSSTMTGTYSGQFVMEGFLNLKWSRFARVVLTRSIAIIPTLLVAVFQDVEHLTGMNDFLNVLQSLQLPFALIPILTFTSLRPVMSDFANGLGWRIAGGILVLIICSINMYFVVVYVRDLGHVALYVVAAVVSVAYLGFVFYLGWQCLIALGMSFLDCGHTCHLGLTAQPELYLLNTMDADSLVSR [SLC11A2]”: the “solubility in G1/S (log2)” value in the series with HeLa Kyoto [1] is -0.142. Also, the figures for the thermal stability score in the series with HeLa Kyoto [2] (setting [5]) and in the series with HeLa Kyoto [2] (cell cycle stage: mitosis) were 2.43 and -0.114, respectively. Also, the “solubility change mitosis (log2)” value with HeLa Kyoto [3] was -0.211. Also, the melting temperature was 58.8 °C in the series on HeLa Kyoto [4] (cell cycle stage: G1/S) and 57.6 °C with HeLa Kyoto [4] (cell cycle stage: mitosis).

For the sequence “MVLLHVLFEHAVGYALLALKEVEEISLLQPQVEESVLNLGKFHSIVRLVAFCPFASSQVALENANAVSEGVVHEDLRLLLETHLPSKKKKVLLGVGDPKIGAAIQEELGYNCQTGGVIAEILRGVRLHFHNLVKGLTDLSACKAQLGLGHSYSRAKVKFNVNRVDNMIIQSISLLDQLDKDINTFSMRVREWYGYHFPELVKIINDNATYCRLAQFIGNRRELNEDKLEKLEELTMDGAKAKAILDASRSSMGMDISAIDLINIESFSSRVVSLSEYRQSLHTYLRSKMSQVAPSLSALIGEAVGARLIAHAGSLTNLAKYPASTVQILGAEKALFRALKTRGNTPKYGLIFHSTFIGRAAAKNKGRISRYLANKCSIASRIDCFSEVPTSVFGEKLREQVEERLSFYETGEIPRKNLDVMKEAMVQAEEAAAEITRKLEKQEKKRLKKEKKRLAALALASSENSSSTPEECEEMSEKPKKKKKQKPQEVPQENGMEDPSISFSKPKKKKSFSKEELMSSDLEETAGSTSIPKRKKSTPKEETVNDPEEAGHRSGSKKKRKFSKEEPVSSGPEEAVGKSSSKKKKKFHKASQED [NOP56]”, the “solubility in G1/S (log2)” value with HeLa Kyoto [1] was -2.05. Further, the thermal stability score is -2.17 with HeLa Kyoto [2] (setting [5]) and -6.89 in the series with HeLa Kyoto [2] (cell cycle stage: mitosis). Further, the “solubility change mitosis (log2)” value in the series with HeLa Kyoto [3] was 1.28. Also, the results for the melting temperature in the series on HeLa Kyoto [4] (cell cycle stage: G1/S) and in the series with HeLa Kyoto [4] (cell cycle stage: mitosis) were 54.6 °C and 52 °C, respectively.

As for “MVLLKEYRVILPVSVDEYQVGQLYSVAEASKNETGGGEGVEVLVNEPYEKDGEKGQYTHKIYHLQSKVPTFVRMLAPEGALNIHEKAWNAYPYCRTVITNEYMKEDFLIKIETWHKPDLGTQENVHKLEPEAWKHVEAVYIDIADRSQVLSKDYKAEEDPAKFKSIKTGRGPLGPNWKQELVNQKDCPYMCAYKLVTVKFKWWGLQNKVENFIHKQERRLFTNFHRQLFCWLDKWVDLTMDDIRRMEEETKRQLDEMRQKDPVKGMTADD [PITPNA]”, the “solubility in G1/S (log2)” value with HeLa Kyoto [1] is 0.15. In addition, the thermal stability score with HeLa Kyoto [2] (setting [5]) is -1.26; in the series on HeLa Kyoto [2] (cell cycle stage: mitosis), -1.48. The “solubility change mitosis (log2)” value with HeLa Kyoto [3] is -0.0595. For the same sequence, the melting temperature is 54.9 °C with HeLa Kyoto [4] (cell cycle stage: G1/S) and 55.5 °C with HeLa Kyoto [4] (cell cycle stage: mitosis).
